Target: lamprey GnRH receptor (sea lamprey (Petromyzon marinus))
Test: cell-based or functional assay

fold difference of EC50 against lamprey GnRH-I (IP and cAMP) (fold lower than lamprey GnRH-I): 40 to 50
Substance: lamprey GnRH-III (from UniProt P30948 1-10) (peptide)
